What all share (assay): disulfide (cystamine) crosslinking, SDS-PAGE; 2.5 mM MnCl2; MST: 25 mM Hepes pH 7.5, 150 mM NaCl, 1 mM DTT, with or without 2 mM GTP and 2 mM MnCl2, 20 nM Cy5-tRNA, temperature not stated; crosslinking: 50 mM Tris pH 7.5, 25 mM NaCl, 25 mM KCl, 30% glycerol, 2.5 mM MnCl2, 0-1 mM DTT, 37 C 2 h then 24 C 14 h
Settings in all cases: protein: recombinant; tags: His6-SUMO removed; single strand

In one data set the target is T1, Tb-RtcB R237C (Thermococcus barophilus, UniProt F0LKB8 1-479, R237C).
T1 sequence: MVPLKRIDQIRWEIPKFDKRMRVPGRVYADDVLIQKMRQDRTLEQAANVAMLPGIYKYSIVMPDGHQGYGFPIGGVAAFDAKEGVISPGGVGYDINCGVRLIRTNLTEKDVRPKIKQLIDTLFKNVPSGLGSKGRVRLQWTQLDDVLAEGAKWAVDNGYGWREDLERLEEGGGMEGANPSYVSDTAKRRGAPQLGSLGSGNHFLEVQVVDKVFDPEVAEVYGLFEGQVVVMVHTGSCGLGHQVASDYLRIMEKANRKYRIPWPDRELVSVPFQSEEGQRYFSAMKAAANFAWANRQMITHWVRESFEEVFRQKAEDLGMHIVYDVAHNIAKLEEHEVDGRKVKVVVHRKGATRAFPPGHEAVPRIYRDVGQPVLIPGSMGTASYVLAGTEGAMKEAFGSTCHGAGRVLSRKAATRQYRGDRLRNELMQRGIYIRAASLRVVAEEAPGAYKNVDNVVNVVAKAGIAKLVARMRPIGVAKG

A further data set deals with T2, Tb-RtcB L130C (Thermococcus barophilus, UniProt F0LKB8 1-479, L130C).
T2 sequence: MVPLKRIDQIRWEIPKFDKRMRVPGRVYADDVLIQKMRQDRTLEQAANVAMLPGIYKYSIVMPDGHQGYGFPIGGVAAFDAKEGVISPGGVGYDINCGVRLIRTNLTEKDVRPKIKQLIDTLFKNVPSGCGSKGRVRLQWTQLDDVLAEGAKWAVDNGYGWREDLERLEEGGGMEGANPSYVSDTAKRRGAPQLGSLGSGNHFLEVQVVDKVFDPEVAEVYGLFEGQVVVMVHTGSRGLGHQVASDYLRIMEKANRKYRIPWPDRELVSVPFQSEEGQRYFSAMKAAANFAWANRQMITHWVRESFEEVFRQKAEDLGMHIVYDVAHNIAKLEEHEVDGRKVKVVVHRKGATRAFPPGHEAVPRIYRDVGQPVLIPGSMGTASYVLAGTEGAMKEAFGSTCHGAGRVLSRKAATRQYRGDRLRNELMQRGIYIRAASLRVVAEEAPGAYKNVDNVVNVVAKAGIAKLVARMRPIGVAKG

A further data set deals with T3, Tb-RtcB S199C (Thermococcus barophilus, UniProt F0LKB8 1-479, S199C).
T3 sequence: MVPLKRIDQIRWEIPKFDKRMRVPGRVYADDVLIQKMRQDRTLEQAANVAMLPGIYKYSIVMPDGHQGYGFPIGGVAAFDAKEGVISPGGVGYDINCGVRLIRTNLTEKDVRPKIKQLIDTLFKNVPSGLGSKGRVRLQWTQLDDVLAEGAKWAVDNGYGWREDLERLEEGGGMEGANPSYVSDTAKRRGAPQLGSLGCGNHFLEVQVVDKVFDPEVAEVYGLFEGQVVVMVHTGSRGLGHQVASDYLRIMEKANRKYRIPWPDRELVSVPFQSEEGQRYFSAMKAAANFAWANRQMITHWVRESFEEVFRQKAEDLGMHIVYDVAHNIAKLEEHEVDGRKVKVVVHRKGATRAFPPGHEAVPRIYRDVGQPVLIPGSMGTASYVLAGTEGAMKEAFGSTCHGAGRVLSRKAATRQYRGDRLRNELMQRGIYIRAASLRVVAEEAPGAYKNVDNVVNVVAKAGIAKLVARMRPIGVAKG

Consider AAACACCGGUGGAGG (ssRNA, cystamine on phosphate between nt 1 and 2; 2'-F at nt 1; 3'-phosphate) [RNA-2], for which, in the data set with Tb-RtcB R237C, the binding result is “binds”.
Consider AAACACCGGUGGAGG (ssRNA, cystamine on phosphate between nt 2 and 3; 2'-F at nt 2; 3'-phosphate) [RNA-1], for which the binding result with Tb-RtcB L130C, with Tb-RtcB R237C and in the data set with Tb-RtcB S199C was “binds” in each case.

Values taken from article PMC12135372, “Structural and biochemical characterization of the 3′-5′ tRNA splicing ligases”.
